Reference: patent publication US20230355708A1

Assays:
S1 (SARS-CoV-2) = S1 (SARS-CoV-2) (UniProt P0DTC2); test: SPR
Yu gp120 = test: SPR

| Substance | Kd (S1 (SARS-CoV-2)) [µM] | Kd (Yu gp120) [µM] |
| --- | --- | --- |
| ACE2 | 0.0024 | – |
| P51G-CVN-HIS(OK) | – | 0.0228 |
